Experimental data taken from US20180371100A1 (Kyowa Kirin, published 2018).
Where a chain is given by its changes, count along the chain named. Where “and” joins values, the source holds several entries; their conditions need not be identical. Equal values may be shown once.

T1: FLAG fusion human CRTH2 (human, UniProt Q9Y5Y4 1-395)
T1 construct: Expressed on rat 3Y1-B cells; also called human CRTH2 with a C terminal to which a FLAG tag was added; not shown: FLAG tag at the C terminal
T1 sequence: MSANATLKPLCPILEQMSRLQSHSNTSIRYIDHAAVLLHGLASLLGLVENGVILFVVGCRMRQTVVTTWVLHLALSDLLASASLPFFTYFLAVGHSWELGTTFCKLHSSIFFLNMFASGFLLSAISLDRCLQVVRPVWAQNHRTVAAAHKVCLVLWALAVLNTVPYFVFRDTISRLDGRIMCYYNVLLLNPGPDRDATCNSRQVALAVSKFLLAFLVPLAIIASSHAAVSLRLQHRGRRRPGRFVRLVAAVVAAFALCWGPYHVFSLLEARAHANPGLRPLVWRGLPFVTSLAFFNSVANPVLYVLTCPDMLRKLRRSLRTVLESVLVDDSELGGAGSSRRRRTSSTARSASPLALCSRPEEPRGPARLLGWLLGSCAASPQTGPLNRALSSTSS

T2: Azami-Green fusion cynomolgus monkey CRTH2 (cynomolgus monkey, UniProt Q9Y5Y4 1-395 (human entry))
T2 construct: Expressed on CHO/DG44 cells; not shown: Azami-Green tag from vector phmAG1-MNLinker (MBL)
T2 chain: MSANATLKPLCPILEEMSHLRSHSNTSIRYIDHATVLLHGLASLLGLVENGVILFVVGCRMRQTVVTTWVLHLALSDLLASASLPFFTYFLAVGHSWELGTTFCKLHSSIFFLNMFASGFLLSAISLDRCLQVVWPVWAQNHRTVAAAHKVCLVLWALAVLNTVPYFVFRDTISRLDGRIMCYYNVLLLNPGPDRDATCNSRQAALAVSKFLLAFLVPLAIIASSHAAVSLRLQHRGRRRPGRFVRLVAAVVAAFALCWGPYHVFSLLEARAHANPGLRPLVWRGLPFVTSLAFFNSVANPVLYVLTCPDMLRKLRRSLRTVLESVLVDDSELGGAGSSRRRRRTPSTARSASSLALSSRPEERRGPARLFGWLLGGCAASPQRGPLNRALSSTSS

B1: humanized Lym2 antibody LV0HV0 (antibody, V domains shown)
VH: EVQLVESGGGVVQPGRSLRLSCAASGFTFSNYYMAWVRQAPGKGLEWVATISYDGSSTYYRDSVKGRFTISRDNAKNSLYLQMNSLRAEDTAVYYCARHRGYYYSGAGYFDYWGQGTMVTVSS
VL: DIVMTQTPLSLPVTPGESASISCRSSQSLEYSDGYTYLEWYLQKPGQSPQVLIYGVSNRFSGVPDRFSGSGSGTDFTLKISRVEAEDVGVYYCFQATHDPLTFGQGTKLEIK
B2: rat/human chimeric Lym2 antibody (antibody, V domains shown)
VH: B1 VH with V11L, L18M, R19K, G42K, N77S, S78T, N84D, A88S, V93T, T117V
VL: DVVLTQTPVSLSVTLGDQASISCRSSQSLEYSDGYTYLEWYLQKPGQSPQVLIYGVSNRFSGVPDRFIGSGSGTDFTLKISRVEPEDLGVYYCFQATHDPLTFGSGTKLEIK
notes: expressed in FUT8 knockout CHO cells; also called chLym2
B3: humanized Lym2 antibody LV2cHV4 (antibody, V domains shown)
VH: B1 VH with L18M, N77S, V93T, T117V
VL: B1 VL with I2V, M4L
B4: humanized Lym2 antibody LV2bHV0 (antibody, V domains shown)
VH: B1 VH
VL: B1 VL with P15L, A85P
B5: humanized Lym2 antibody LV2aHV0 (antibody, V domains shown)
VH: B1 VH
VL: B1 VL with M4L, P15L
B6: humanized Lym2 antibody LV3aHV4 (antibody, V domains shown)
VH: B1 VH with L18M, N77S, V93T, T117V
VL: B1 VL with I2V, M4L, A85P
B7: humanized Lym2 antibody LV2bHV4 (antibody, V domains shown)
VH: B1 VH with L18M, N77S, V93T, T117V
VL: B1 VL with P15L, A85P
B8: humanized Lym2 antibody LV0HV3 (antibody, V domains shown)
VH: B1 VH with L18M, V93T, T117V
VL: B1 VL
B9: humanized Lym2 antibody LV0HV2a (antibody, V domains shown)
VH: B1 VH with V93T, T117V
VL: B1 VL
B10: humanized Lym2 antibody LV0HV2b (antibody, V domains shown)
VH: B1 VH with L18M, T117V
VL: B1 VL
B11: humanized Lym2 antibody LV1HV4 (antibody, V domains shown)
VH: B1 VH with L18M, N77S, V93T, T117V
VL: B1 VL with P15L
B12: humanized Lym2 antibody LV3bHV0 (antibody, V domains shown)
VH: B1 VH
VL: B1 VL with I2V, M4L, P15L
B13: humanized Lym2 antibody LV0HV4 (antibody, V domains shown)
VH: B1 VH with L18M, N77S, V93T, T117V
VL: B1 VL
B14: humanized Lym2 antibody LV0HV1 (antibody, V domains shown)
VH: B1 VH with V93T
VL: B1 VL
notes: also called humanized anti-human CRTH2 antibody LV0HV1
B15: humanized Lym2 antibody LV3aHV0 (antibody, V domains shown)
VH: B1 VH
VL: B1 VL with I2V, M4L, A85P
B16: humanized Lym2 antibody LV4HV4 (antibody, V domains shown)
VH: B1 VH with L18M, N77S, V93T, T117V
VL: B1 VL with I2V, M4L, P15L, A85P
B17: humanized Lym2 antibody LV4HV0 (antibody, V domains shown)
VH: B1 VH
VL: B1 VL with I2V, M4L, P15L, A85P
B18: humanized Lym2 antibody LV2cHV0 (antibody, V domains shown)
VH: B1 VH
VL: B1 VL with I2V, M4L
B19: humanized Lym2 antibody LV1HV0 (antibody, V domains shown)
VH: B1 VH
VL: B1 VL with P15L
B20: humanized Lym2 antibody LV2aHV4 (antibody, V domains shown)
VH: B1 VH with L18M, N77S, V93T, T117V
VL: B1 VL with M4L, P15L
B21: humanized Lym2 antibody LV3bHV4 (antibody, V domains shown)
VH: B1 VH with L18M, N77S, V93T, T117V
VL: B1 VL with I2V, M4L, P15L

molecular target: T1, FLAG fusion human CRTH2; assay: flow cytometry on FLAG fusion human CRTH2-expressing 3Y1-B cells; logistic fit of Geomean; ± is the standard error
Method: FLAG fusion human CRTH2-expressing 3Y1-B cells were peeled using a 0.25% trypsin-EDTA (NACALAI TESQUE, Inc.), washed with PBS, and suspended with SM. Next, the cells were seeded in a 96-well plate such that one well has 1×10⁵ cells. Further, chLym2 or each of the humanized Lym2 antibodies was added at each final concentrations of 50000, 12500, 3125, 781, 195, 49, 12, and 3 ng/mL to cause a reaction at 4° C. for 60 minutes.
After the cells were washed with SM, Goat F(ab′)₂ Anti-Human IgG PE (γchain specific) (Southern Biotech Inc.) diluted 500 times with SM was added to cause a reaction at 4° C. for 60 minutes. The cells were washed with SM and resuspended with 50 μL of SM, and the fluorescent intensity was measured by flow cytometry (BD Biosciences, FACS CantoII).
The data was analyzed by FLowJo 7.65 (Tomy Digital Biology Co., Ltd.), curve fitting of the Geomean value in each concentration was performed using a Logistic curve, and the 50% effective concentration (EC₅₀) value of the binding of chLym2 and each humanized Lym2 antibody and the standard error (SE) value thereof were calculated using R language (Ver. 3.02) which is a language for statistical analysis.

| Binder | EC50 |
| --- | --- |
| B1 | 0.55 µg/mL and 0.87 µg/mL |
| B2 | 0.5 µg/mL and 0.54 µg/mL |
| B3 | 0.54 µg/mL |
| B4 | 0.67 µg/mL |
| B5 | 0.66 µg/mL |
| B6 | 0.76 µg/mL |
| B7 | 0.59 µg/mL |
| B8 | 0.69 µg/mL |
| B9 | 0.65 µg/mL |
| B10 | 0.72 µg/mL |
| B11 | 0.58 µg/mL |
| B12 | 0.81 µg/mL |
| B13 | 0.58 µg/mL and 0.67 µg/mL |
| B14 | 0.78 µg/mL |
| B15 | 0.7 µg/mL |
| B16 | 0.68 µg/mL |
| B17 | 0.74 µg/mL |
| B18 | 0.68 µg/mL |
| B19 | 0.69 µg/mL |
| B20 | 0.51 µg/mL |
| B21 | 0.53 µg/mL |

Molecular target: T2, Azami-Green fusion cynomolgus monkey …
Assay: flow cytometry on Azami-Green fusion cynomolgus monkey CRTH2-expressing CHO/DG44 cells, 2-30000 ng/mL
Method: The Azami-Green fusion human CRTH2-expressing CHO/DG44 cells and the cynomolgus monkey CRTH2-expressing CHO/DG44 cells established in Example 24 were peeled using 0.02% EDTA solution (NACALAI TESQUE, Inc.), washed with PBS, and suspended with SM. Next, the cells were seeded in a 96-well plate such that each well had 2×10⁵ cells, and humanized Lym2 antibody LV0HV1 or the anti-DNP IgG1 antibody at each of final concentrations 30000, 7500, 1875, 469, 117, 29, 7, and 2 ng/mL were added thereto to cause a reaction at 4° C. for 40 minutes.
After the cells were washed three times with SM, goat anti-Human IgG alexa 647 (Molecular Probes) diluted to a concentration of 10 μg/mL with SM was added thereto at 100 μL/well to perform a reaction at 4° C. for 40 minutes. The cells were washed with SM and resuspended with 100 μL of SM, and the fluorescent intensity was measured by flow cytometry (BD Biosciences, FACS CantoII).

| Binder | binding result |
| --- | --- |
| B14 | binds |
